# Measurements taken from publication PMC4670574 (2016).
# Square brackets hold non-standard residues; d marks the D form. Ends that are not written are not given here. pT = C[C@@H](OP(=O)(O)O)[C@H](N)C(=O)O
# Molecular target: T1, pCdc25C phosphopeptide (Homo sapiens)
# T1 chain: EQPL[pT]PVTDL
# Assay: ITC
binder,measurement,value
Pin1 isolated PPIase domain PPIase domain (protein) PARVRCSHLLVKHSQSRRPSSWRQEKITRTKEEALELINGYIQKIKSGEEDFESLASQFSDCSSAKARGDLGAFSRGQMQKPFEDASFALRTGEMSGPVFTDSGIHIILRTE,Kd,> 1000 µM
